Reference: US20190016794A1 (Boehringer Ingelheim, published 2019)

Assays:
human TNF-alpha [1] = biological target: T1, human TNF-alpha (human, UniProt P01375 77-233); test: cell-based or functional assay
human TNF-alpha [2] = biological target: T1, human TNF-alpha; test: cell-based or functional assay; remark: listed apart in the source
cynomolgus TNF-alpha = cynomolgus TNF-alpha (cynomolgus, UniProt P79337 77-233, limits assumed); test: cell-based or functional assay
human TNF-alpha [3] = biological target: T1, human TNF-alpha; test: cell-based or functional assay; remark: listed apart in the source
human TNF-alpha [4] = biological target: T1, human TNF-alpha; test: cell-based or functional assay; remark: listed apart in the source
recombinant human IL23 [5] = biological target: T2, recombinant human IL23 (human, UniProt P29460 23-328); test: cell-based or functional assay
T2 sequence 1: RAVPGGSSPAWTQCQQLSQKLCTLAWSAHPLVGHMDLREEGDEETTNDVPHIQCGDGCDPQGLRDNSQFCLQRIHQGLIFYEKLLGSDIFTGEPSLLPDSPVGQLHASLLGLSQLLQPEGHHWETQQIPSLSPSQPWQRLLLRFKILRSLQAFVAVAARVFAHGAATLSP
T2 sequence 2: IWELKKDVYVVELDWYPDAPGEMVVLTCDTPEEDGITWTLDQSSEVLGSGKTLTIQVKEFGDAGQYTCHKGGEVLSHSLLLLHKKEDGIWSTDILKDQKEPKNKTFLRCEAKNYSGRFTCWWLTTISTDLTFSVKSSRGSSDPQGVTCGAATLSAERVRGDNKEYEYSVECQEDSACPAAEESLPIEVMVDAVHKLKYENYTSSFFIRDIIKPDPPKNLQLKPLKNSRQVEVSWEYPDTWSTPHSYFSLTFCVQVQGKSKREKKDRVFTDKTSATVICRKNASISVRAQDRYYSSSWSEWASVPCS

recombinant human IL23 [6] = biological target: T2, recombinant human IL23; test: cell-based or functional assay; remark: listed apart in the source
[7] = biological target: T3, recombinant cynomolgus IL23 (cynomolgus); test: cell-based or functional assay
T3 chain 1: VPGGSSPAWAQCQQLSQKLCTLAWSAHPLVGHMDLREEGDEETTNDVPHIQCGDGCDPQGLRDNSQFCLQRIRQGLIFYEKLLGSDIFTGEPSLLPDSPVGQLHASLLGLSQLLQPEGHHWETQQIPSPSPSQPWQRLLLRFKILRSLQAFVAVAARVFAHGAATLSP
T3 chain 2: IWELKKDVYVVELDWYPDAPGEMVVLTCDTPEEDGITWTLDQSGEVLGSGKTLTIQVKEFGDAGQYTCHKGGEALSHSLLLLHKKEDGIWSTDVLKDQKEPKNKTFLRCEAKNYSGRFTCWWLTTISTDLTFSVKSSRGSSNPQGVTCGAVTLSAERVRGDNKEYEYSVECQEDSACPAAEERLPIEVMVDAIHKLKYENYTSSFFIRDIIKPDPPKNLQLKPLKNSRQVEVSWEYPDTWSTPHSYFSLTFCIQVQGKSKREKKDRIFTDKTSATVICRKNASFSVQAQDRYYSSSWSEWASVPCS

recombinant human IL23 [8] = biological target: T2, recombinant human IL23; test: cell-based or functional assay; remark: listed apart in the source
recombinant human IL23 [9] = biological target: T2, recombinant human IL23; test: cell-based or functional assay; remark: listed apart in the source
membrane bound TNF-alpha [10] = biological target: T4, membrane bound TNF-alpha; test: flow cytometry, mTNF-transfected CHO cells (geomean)
T4 construct: whole, on cells; also called mTNF; membrane expressed TNF-alpha
Protocol: (§1) All reagents were prepared in flow cytometry staining buffer (BioLegend). Membrane expressed TNF-alpha transfected cell lines (Jurkat and CHO) and parental cell lines were harvested from tissue culture vessels, washed, counted and resuspended to 1×10̂6 cells/ml in flow cytometry staining buffer. One hundred microliters of the cell suspension was added to 96 well microtiter plates and placed on ice. Titrations of test compounds were prepared and 50 uL was added to the cells. After sixty minute incubation on ice, the cell+test compounds were washed and 50 uL of a secondary antibody (Jackson ImmunoResearch) was added. The samples were incubated in the dark, at 4 C, for 60 minutes, followed by washes. After a final wash the cells were resuspended in 60 uL of fixative (BD Bioscience). Median fluorescence was determined for each sample in a flow cytometer and plotted versus the concentration of the test sample. EC₅₀ values were calculated using the 4 Parameter Logistic enabled by the Excel add-in XLfit (Activity Base software, ID Business Solutions, Ltd.).

membrane bound TNF-alpha [11] = biological target: T4, membrane bound TNF-alpha; test: flow cytometry, mTNF-transfected Jurkat cells (geomean)
Protocol: as §1

recombinant human IL23 [12] = biological target: T2, recombinant human IL23; test: cell-based or functional assay; remark: listed apart in the source
recombinant human IL23 [13] = biological target: T2, recombinant human IL23; test: cell-based or functional assay; remark: listed apart in the source
human TNF-alpha [14] = biological target: T1, human TNF-alpha; test: SPR (ProteOn XPR36), compound captured on goat anti-human IgG Fc, antigen injected
Protocol: (§2) SPR experiments were performed on a ProteOn XPR36 instrument (Bio Rad). A GLM chip was preconditioned with sequential injections of 60 sec of 0.5% SDS, 50 mM NaOH, and 100 mM HCl at a flow rate of 30 μl/min both vertical and horizontal directions. […] Goat-anti-human IgG (GAHA) Fc gamma (Invitrogen) at a concentration of 30 μg/ml in 10 mM, pH 5.0 sodium acetate buffer was immobilized to 8,000 resonance units on the activated GLM chip in 6 horizontal channels. The chip was finally deactivated with 1 M ethanolamine HCl in 6 horizontal channels. The prepared GAHA chip was rotated to vertical direction to capture test compounds, over 5 vertical channels and the last channel was used as a column reference. The captured chip was then rotated again to the horizontal direction for binding. […] The dissociation was allowed for 2 hour. […] The regenerated GAHA was ready for another binding cycle.

Linked human IL-23 = biological target: T5, Linked human IL-23 (human, UniProt P29460 23-328); test: SPR (ProteOn XPR36), compound captured on goat anti-human IgG Fc, linked human IL-23 injected at 0.625-10 nM
T5 construct: Printed as 'Linked human IL-23 (Boehringer Ingelheim Pharmaceuticals, Inc)' in the SPR method
T5 sequence 1: T2 sequence 1
T5 sequence 2: T2 sequence 2
Protocol: as §2

T4 sequence (P01375 whole entry): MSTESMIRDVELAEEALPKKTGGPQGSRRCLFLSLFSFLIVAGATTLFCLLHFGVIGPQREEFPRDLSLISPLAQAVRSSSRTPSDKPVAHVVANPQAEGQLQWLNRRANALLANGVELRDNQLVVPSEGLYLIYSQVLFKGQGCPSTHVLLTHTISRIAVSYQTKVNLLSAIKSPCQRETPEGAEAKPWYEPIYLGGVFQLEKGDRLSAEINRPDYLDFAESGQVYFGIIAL
T1 sequence (P01375 77-233 limits assumed): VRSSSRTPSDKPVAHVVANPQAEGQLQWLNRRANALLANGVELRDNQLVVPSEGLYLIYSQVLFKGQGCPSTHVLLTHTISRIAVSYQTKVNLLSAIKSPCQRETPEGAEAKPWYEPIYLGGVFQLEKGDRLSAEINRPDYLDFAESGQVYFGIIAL
Sequence of cynomolgus TNF-alpha (P79337 77-233 limits assumed): as the sequence (P01375 77-233 limits assumed) above, with L37V, R44T, T72N, R138L counted along it

B1: Compound O (bispecific antibody)
chain 1: not shown
chain 2: EIVLTQSPATLSLSPGERATLSCRASQSVYSYLAWYQQKPGQAPRLLIYDASNRATGIPARFSGSGSGTDFTLTISSLEPEDFAVYYCQQRSNWPPFTFGPGTKVDIKGGGSGGGGQVQLVQSGAEVKKPGSSVKVSCKASGYTFTDQTIHWMRQAPGQGLEWIGYIYPRDDSPKYNENFKGKVTITADKSTSTAYMELSSLRSEDTAVYYCAIPDRSGYAWFIYWGQGTLVTVSSLGGGSGRTVAAPSVFIFPPSDEQLKSGTASVVCLLNNFYPREAKVQWKVDNALQSGNSQESVTEQDSKDSTYSLSSTLTLSKADYEKHKVYACEVTHQGLSSPVTKSFNRGEC
notes: GS linkers, isotype IgG1KO; counterpart of Compound E without YTE; also called Compound 0
Human TNF-alpha [1]
  L929 TNF Cytotox IC50: 0.0042 nM
  L929 TNF Cytotox IC90: 0.016 nM
Human TNF-alpha [2]
  HeLa IL8 Hi-Hu-TNF IC50: 0.43 nM
  HeLa IL8 Hi-Hu-TNF IC90: 0.76 nM
  HeLa IL8 Lo-Hu-TNF IC50: 0.0099 nM
  HeLa IL8 Lo-Hu-TNF IC90: 0.043 nM
Cynomolgus TNF-alpha
  HeLa IL8 Cyno-TNF IC50: 0.3 nM
  HeLa IL8 Cyno-TNF IC90: 0.97 nM
Human TNF-alpha [3]
  TNF-IL8 Whole Blood IC50: 0.32 nM
  TNF-IL8 Whole Blood IC90: 0.47 nM
Human TNF-alpha [4]
  Dual Phospho Jurkat-pNf-Kb IC50: 210 pM
  Dual Phospho Jurkat-pNf-Kb IC90: 740 pM
Recombinant human IL23 [5]
  Dual Phospho DB-pSTAT3 IC50: 210 pM
  Dual Phospho DB-pSTAT3 IC90: 580 pM
Recombinant human IL23 [6]
  hIL23 pSTAT3 DB assay IC50: 300 pM
  hIL23 pSTAT3 DB assay IC90: 720 pM
[7]
  CynoIL23 MSA IC50: 0.12 nM
  CynoIL23 MSA IC90: 0.8 nM
Recombinant human IL23 [8]
  huIL23 MSA IC50: 0.21 nM
  huIL23 MSA IC90: 2.2 nM
Recombinant human IL23 [9]
  IL23A pSTAT3 (MG) IC50: 160 pM
  IL23A pSTAT3 (MG) IC90: 650 pM
Membrane bound TNF-alpha [10]
  EC50: 0.77 nM
Membrane bound TNF-alpha [11]
  EC50: 0.27 nM

B2: Compound E (bispecific antibody)
chain 1: DIQMTQSPSSLSASVGDRVTITCKASRDVAIAVAWYQQKPGKVPKLLIYWASTRHTGVPSRFSGSGSRTDFTLTISSLQPEDVADYFCHQYSSYPFTFGSGTKLEIKGGGSGGGGQVQLVESGGGVVQPGRSLRLSCAASGFIFSSYAMHWVRQAPGNGLEWVAFMSYDGSNKKYADSVKGRFTISRDNSKNTLYLQMNSLRAEDTAVYYCARDRGIAAGGNYYYYGMDVWGQGTTVTVSSLGGGSGASTKGPSVFPLAPSSKSTSGGTAALGCLVKDYFPEPVTVSWNSGALTSGVHTFPAVLQSSGLYSLSSVVTVPSSSLGTQTYICNVNHKPSNTKVDKRVEPKSCDKTHTCPPCPAPEAAGGPSVFLFPPKPKDTLYITREPEVTCVVVDVSHEDPEVKFNWYVDGVEVHNAKTKPREEQYNSTYRVVSVLTVLHQDWLNGKEYKCKVSNKALPAPIEKTISKAKGQPREPQVYTLPPSREEMTKNQVSLTCLVKGFYPSDIAVEWESNGQPENNYKTTPPVLDSDGSFFLYSKLTVDKSRWQQGNVFSCSVMHEALHNHYTQKSLSLSPGK
chain 2: B1 chain 2
notes: GS linkers, isotype IgG1KO-YTE
Human TNF-alpha [1]
  L929 TNF Cytotox IC50: 0.0041 nM
  L929 TNF Cytotox IC90: 0.017 nM
Human TNF-alpha [2]
  HeLa IL8 Hi-Hu-TNF IC50: 0.32 nM
  HeLa IL8 Hi-Hu-TNF IC90: 0.53 nM
  HeLa IL8 Lo-Hu-TNF IC50: 0.0092 nM
  HeLa IL8 Lo-Hu-TNF IC90: 0.035 nM
Human TNF-alpha [3]
  TNF-IL8 Whole Blood IC50: 0.34 nM
  TNF-IL8 Whole Blood IC90: 0.61 nM
Human TNF-alpha [4]
  Dual Phospho Jurkat-pNf-Kb IC50: 260 pM
  Dual Phospho Jurkat-pNf-Kb IC90: 340 pM
Recombinant human IL23 [5]
  Dual Phospho DB-pSTAT3 IC50: 230 pM
  Dual Phospho DB-pSTAT3 IC90: 770 pM
Recombinant human IL23 [6]
  hIL23 pSTAT3 DB assay IC50: 300 pM
  hIL23 pSTAT3 DB assay IC90: 700 pM
[7]
  CynoIL23 MSA IC50: 0.077 nM
  CynoIL23 MSA IC90: 1.2 nM
Recombinant human IL23 [8]
  huIL23 MSA IC50: 0.2 nM
  huIL23 MSA IC90: 1.7 nM
Recombinant human IL23 [9]
  IL23A pSTAT3 (MG) IC50: 140 pM
  IL23A pSTAT3 (MG) IC90: 830 pM
Recombinant human IL23 [12]
  IC50, IL-23-dependent STAT3 activation (DB-STAT3Luc10 luciferase): 0.212 nM
  IC90, IL-23-dependent STAT3 activation (DB-STAT3Luc10 luciferase): 0.965 nM
Recombinant human IL23 [13]
  First test IC50, IL-23-dependent STAT3 activation (luciferase): 0.17 nM
  GEOMEAN IC50, IL-23-dependent STAT3 activation (luciferase): 0.19 nM
  GEOMEAN IC90, IL-23-dependent STAT3 activation (luciferase): 0.859 nM
Membrane bound TNF-alpha [10]
  EC50: 0.45 nM
Membrane bound TNF-alpha [11]
  EC50: 0.2 nM
Human TNF-alpha [14]
  Kd: 0.00411 nM
Linked human IL-23
  Kd: 0.007 nM
